Experimental data: patent US20230002480A1

Assays:
Assay in all cases: cell-based or functional assay
[1] = molecular target: HIV-1 Env of pseudovirus Q769.d22 (HIV-1)
[2] = molecular target: MuLV envelope (negative control pseudovirus)
[3] = molecular target: HIV-1 Env of pseudovirus Ce1172_H1 (HIV-1)
[4] = molecular target: HIV-1 Env of pseudovirus 6535.3 (HIV-1)
[5] = molecular target: HIV-1 Env of pseudovirus MS208.A1 (HIV-1)
[6] = molecular target: HIV-1 Env of pseudovirus 1006_11_C3_1601 (HIV-1)
[7] = molecular target: HIV-1 Env of pseudovirus ZM197M.PB7 (HIV-1)
[8] = molecular target: HIV-1 Env of pseudovirus 3817.v2.c59 (HIV-1)
[9] = molecular target: HIV-1 Env of pseudovirus 6480.v4.c25 (HIV-1)
[10] = molecular target: HIV-1 Env of pseudovirus T251-18 (HIV-1)
[11] = molecular target: HIV-1 Env of pseudovirus CNE19 (HIV-1)
[12] = molecular target: HIV-1 Env of pseudovirus 62357_14_D3_4589 (HIV-1)
[13] = molecular target: HIV-1 Env of pseudovirus BJOX025000.01.1 (HIV-1)
[14] = molecular target: HIV-1 Env of pseudovirus 249M B10 (HIV-1)
[15] = molecular target: HIV-1 Env of pseudovirus T250-4 (HIV-1)
[16] = molecular target: HIV-1 Env of pseudovirus 231966.c02 (HIV-1)
[17] = molecular target: HIV-1 Env of pseudovirus X2088_c9 (HIV-1)
[18] = molecular target: HIV-1 Env of pseudovirus CNE20 (HIV-1)
[19] = molecular target: HIV-1 Env of pseudovirus SC422661.8 (HIV-1)
[20] = molecular target: HIV-1 Env of pseudovirus HIV-16845-2.22 (HIV-1)
[21] = molecular target: HIV-1 Env of pseudovirus 620345.c01 (HIV-1)
[22] = molecular target: HIV-1 Env of pseudovirus 928-28 (HIV-1)
[23] = molecular target: HIV-1 Env of pseudovirus C3347.c11 (HIV-1)
[24] = molecular target: HIV-1 Env of pseudovirus C2101.c01 (HIV-1)
[25] = molecular target: HIV-1 Env of pseudovirus 3301.v1.c24 (HIV-1)
[26] = molecular target: HIV-1 Env of pseudovirus CNE30 (HIV-1)
[27] = molecular target: HIV-1 Env of pseudovirus 3016.v5.c45 (HIV-1)
[28] = molecular target: HIV-1 Env of pseudovirus Q259.d2.17 (HIV-1)
[29] = molecular target: HIV-1 Env of pseudovirus 6545.v4.c1 (HIV-1)
[30] = molecular target: HIV-1 Env of pseudovirus 263-8 (HIV-1)
[31] = molecular target: HIV-1 Env of pseudovirus C1080.c03 (HIV-1)
[32] = molecular target: HIV-1 Env of pseudovirus T257-31 (HIV-1)
[33] = molecular target: HIV-1 Env of pseudovirus Du172.17 (HIV-1)

B1: N49P23 (antibody, V domains shown)
VH: QVRLVQSGAGARKTGASMKLSCSTSGYTFTTHHGHFINWVRQARGQGLEWMGWMNPMTGQMNIEGKFQGRVTLTRDIYSDTAYMEMTRLTTGDTGTYYCARGDFGQNYPFHYWGQGSLVIVSS
VL: LSALTQPASVSGSPGQSVTISCSGTNRYLVSWYQQHPDKAPKLIIYDDNKRPSGISDRFSASRPDDTASLTISGLQTGDEATYWCASYERFGGGTRLTVLS
[1]
  IC50: 0.005 µg/mL
  IC80: 0.025 µg/mL
  MPI: 100
[2]
  IC50: > 50 µg/mL
  IC80: > 50 µg/mL
  MPI: 9
[3]
  IC50: > 50 µg/mL
  IC80: > 50 µg/mL
  MPI: 0
[4]
  IC50: 0.127 µg/mL
  IC80: 0.855 µg/mL
  MPI: 100
[5]
  IC50: 0.048 µg/mL
  IC80: 0.279 µg/mL
  MPI: 100
[6]
  IC50: 0.015 µg/mL
  IC80: 0.054 µg/mL
  MPI: 100
[7]
  IC50: 0.1 µg/mL
  IC80: 0.385 µg/mL
  MPI: 100
[8]
  IC50: > 50 µg/mL
  IC80: > 50 µg/mL
  MPI: 41
[9]
  IC50: > 50 µg/mL
  IC80: > 50 µg/mL
  MPI: 29
[10]
  IC50: > 50 µg/mL
  IC80: > 50 µg/mL
  MPI: 18
[11]
  IC50: > 50 µg/mL
  IC80: > 50 µg/mL
  MPI: 40
[12]
  IC50: 0.057 µg/mL
  IC80: 0.76 µg/mL
  MPI: 95
[13]
  IC50: > 50 µg/mL
  IC80: > 50 µg/mL
  MPI: 0
[14]
  IC50: > 50 µg/mL
  IC80: > 50 µg/mL
  MPI: 20
[15]
  IC50: > 50 µg/mL
  IC80: > 50 µg/mL
  MPI: 0
[16]
  IC50: 0.035 µg/mL
  IC80: 0.158 µg/mL
  MPI: 100
[17]
  IC50: > 50 µg/mL
  IC80: > 50 µg/mL
  MPI: 10
[18]
  IC50: 45.4 µg/mL
  IC80: > 50 µg/mL
  MPI: 51
[19]
  IC50: 0.069 µg/mL
  IC80: 0.245 µg/mL
  MPI: 100
[20]
  IC50: > 50 µg/mL
  IC80: > 50 µg/mL
  MPI: 20
[21]
  IC50: > 50 µg/mL
  IC80: > 50 µg/mL
  MPI: 0
[22]
  IC50: 0.021 µg/mL
  IC80: 0.122 µg/mL
  MPI: 100
[23]
  IC50: 0.007 µg/mL
  IC80: 0.032 µg/mL
  MPI: 100
[24]
  IC50: 0.056 µg/mL
  IC80: 0.362 µg/mL
  MPI: 100
[25]
  IC50: 0.017 µg/mL
  IC80: 0.058 µg/mL
  MPI: 100
[26]
  IC50: 0.143 µg/mL
  IC80: 0.68 µg/mL
  MPI: 100
[27]
  IC50: 0.027 µg/mL
  IC80: 0.092 µg/mL
  MPI: 100
[28]
  IC50: 0.362 µg/mL
  IC80: 7.79 µg/mL
  MPI: 91
[29]
  IC50: > 50 µg/mL
  IC80: > 50 µg/mL
  MPI: 10
[30]
  IC50: 0.012 µg/mL
  IC80: 0.096 µg/mL
  MPI: 100
[31]
  IC50: 1.33 µg/mL
  IC80: 11.3 µg/mL
  MPI: 96
[32]
  IC50: 0.178 µg/mL
  IC80: 1.17 µg/mL
  MPI: 100
[33]
  IC50: > 50 µg/mL
  IC80: > 50 µg/mL
  MPI: 45
